Measurements: PMC3656109

Tests used:
[1] = target: KSHV gH (V5 epitope-tagged)/gL complex (Kaposi's sarcoma-associated herpesvirus (KSHV, HHV-8)) (UniProt F5HAK9)
[2] = target: RRV 26-95 gH (V5 epitope-tagged)/gL complex (rhesus monkey rhadinovirus (RRV) strain 26-95)

Sequence of UniProt F5HAK9 (F5HAK9 whole entry, looked up, one chain of several): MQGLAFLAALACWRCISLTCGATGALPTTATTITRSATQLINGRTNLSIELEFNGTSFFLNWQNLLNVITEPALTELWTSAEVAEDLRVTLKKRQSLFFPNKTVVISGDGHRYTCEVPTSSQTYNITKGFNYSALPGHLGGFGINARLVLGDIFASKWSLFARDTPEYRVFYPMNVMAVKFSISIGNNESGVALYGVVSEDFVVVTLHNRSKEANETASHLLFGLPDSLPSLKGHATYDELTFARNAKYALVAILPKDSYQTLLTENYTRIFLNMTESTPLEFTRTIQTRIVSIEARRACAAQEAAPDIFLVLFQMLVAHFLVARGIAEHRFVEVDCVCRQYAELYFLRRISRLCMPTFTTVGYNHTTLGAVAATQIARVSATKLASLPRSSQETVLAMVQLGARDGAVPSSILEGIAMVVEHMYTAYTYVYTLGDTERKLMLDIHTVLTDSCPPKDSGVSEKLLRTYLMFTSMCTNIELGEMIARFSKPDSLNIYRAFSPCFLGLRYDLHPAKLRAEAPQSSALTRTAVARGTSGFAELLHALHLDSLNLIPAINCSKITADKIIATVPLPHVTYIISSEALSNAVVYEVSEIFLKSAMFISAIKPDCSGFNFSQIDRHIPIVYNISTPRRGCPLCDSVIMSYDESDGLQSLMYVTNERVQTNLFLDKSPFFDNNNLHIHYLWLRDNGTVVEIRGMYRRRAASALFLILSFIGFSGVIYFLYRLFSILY

## EphA7-Fc (from UniProt Q15375 28-555) (Fc fusion)
[1]
  entry of KSHV into rhesus fibroblasts after pre-incubation of the virus with EphA7-Fc (1 to 20 µg/ml; no block at 1 µg/ml, value at 20 µg/ml): -35%

B1: EphA1-Fc (Fc fusion)
chain: KEVTLMDTSKAQGELGWLLDPPKDGWSEQQQILNGTPLYMYQDCPMQGRRDTDHWLRSNWIYRGEEASRVHVELQFTVRDCKSFPGGAGPLGCKETFNLLYMESDQDVGIQLRRPLFQKVTTVAADQSFTIRDLVSGSVKLNVERCSLGRLTRRGLYLAFHNPGACVALVSVRVFYQRCPETLNGLAQFPDTLPGPAGLVEVAGTCLPHARASPRPSGAPRMHCSPDGEWLVPVGRCHCEPGYEEGGSGEACVACPSGSYRMDMDTPHCLTCPQQSTAESEGATICTCESGHYRAPGEGPQVACTGPPSAPRNLSFSASGTQLSLRWEPPADTGGRQDVRYSVRCSQCQGTAQDGGPCQPCGVGVHFSPGARGLTTPAVHVNGLEPYANYTFNVEAQNGVSGLGSSGHASTSVSISMGHAESLSGLSLRLVKKEPRQLELTWAGSRPRSPGANLTYELHVLNQDEERYQMVLEPRVLLTELQPDTTYIVRVRMLTPLGPGPFSPDHEFRTSPPVSRGLTGGE
[1]
  entry of KSHV into rhesus fibroblasts after pre-incubation of the virus with EphA1-Fc (1 to 20 µg/ml; no block at 1 µg/ml, value at 20 µg/ml): -22%

B2: EphB3-Fc (Fc fusion)
chain: GCRALEETLMDTKWVTSELAWTSHPESGWEEVSGYDEAMNPIRTYQVCNVRESSQNNWLRTGFIWRRDVQRVYVELKFTVRDCNSIPNIPGSCKETFNLFYYEADSDVASASSPFWMENPYVKVDTIAPDESFSRLDAGRVNTKVRSFGPLSKAGFYLAFQDQGACMSLISVRAFYKKCASTTAGFALFPETLTGAEPTSLVIAPGTCIPNAVEVSVPLKLYCNGDGEWMVPVGACTCATGHEPAAKESQCRPCPPGSYKAKQGEGPCLPCPPNSRTTSPAASICTCHNNFYRADSDSADSACTTVPSPPRGVISNVNETSLILEWSEPRDLGGRDDLLYNVICKKCHGAGGASACSRCDDNVEFVPRQLGLTERRVHISHLLAHTRYTFEVQAVNGVSGKSPLPPRYAAVNITTNQAAPSEVPTLRLHSSSGSSLTLSWAPPERPNGVILDYEMKYFEKSEGIASTVTSQMNSVQLDGLRPDARYVVQVRARTVAGYGQYSRPAEFETTSERGSGAQQLQEQLPL
[2]
  decrease in nuclear accumulation of the RRV genome in HUVEC four hours post infection (real-time PCR) in the presence of 5 µg/ml EphB3-Fc: 74%
